# Tests used:
# [1] = molecular target: T1, Interleukin-8 (IL8, CXCL8), C-terminal His-tagged (Homo sapiens, UniProt P10145 SEQ:1-72); experiment: competition; competition TR-FRET; S1 disrupted; details: tags: C-terminal 6xHis (Sino Biological)
# Protocol: (§1) Activity of each of these variants were tested using a time resolved competition TR-FRET assay in which the labeled parent Aptamer 3 was competed with increasing concentrations of unlabeled variants for binding to IL8 (FIG. 14). Briefly, 2-fold dilutions of thermally equilibrated aptamers were made in TR-FRET Buffer (50 mM MOPS, pH 7.4, 125 mM NaCl, 5 mM KCl, 50 μM CHAPS, 0.1 mg/mL BSA, 1 mM CaCl₂, and 1 mM MgCl₂). 5 μL of aptamer or control solution was added to 5 μl mix of 10 nM C-terminal His-tagged-IL8, 60 nM ALEXA FLUOR® 647-labeled Aptamer, and 5 nM anti-His-Eu (Perkin Elmer) in a black wall low volume 384 well plate (Greiner). For control, 5 μl of 1000-fold excess of unlabeled parent aptamer or 5 μl TR-FRET buffer alone was added to the mix of ALEXA FLUOR® 647-labeled aptamer, His-IL8, and anti-His-Eu. The plate was covered with a plate seal and subsequently incubated in the dark for 1 hour at room temperature. The plate was read on a Biotek CYTATION™ 5 plate reader. […]
# (§2) To better understand the sequence requirements and confirm the stem structures of members of the Aptamer 8 family as determined from sequence covariation analysis from both the primary and secondary (degenerate) selections, a series of variants which included mutations and deletions to the predicted stems (Tables 45 and 46) were synthesized and screened. […]
# [2] = molecular target: T1, Interleukin-8 (IL8, CXCL8), C-terminal …; experiment: competition; competition TR-FRET; U13A; details: tags: C-terminal 6xHis (Sino Biological)
# Protocol: as §1, §2
# [3] = molecular target: T1, Interleukin-8 (IL8, CXCL8), C-terminal …; experiment: inhibition; inhibition of IL8 binding to CXCR1 cells, protein limited; neutrophil migration 2 nM; details: tags: C-terminal His (Sino Biological); stem-loop
# Protocol: (§3) CXCR1 overexpressing cells were used to confirm that aptamers could block IL8 binding to its cognate receptor, CXCR1, in a functional setting. Briefly, CXCR1-overexpressing cells were plated in a 96 well plate and seeded overnight. Serially diluted aptamers and 5 nM IL8 were mixed in cell culture media and applied to cells for 2 hours at 37° C. Media was aspirated, and cells were washed 3× with PBS for 5 minutes. Cells were lysed in Ultra HiBlock Buffer (Perkin Elmer) with gentle agitation. IL8 levels were determined using Ultra TR-FRET (Perkin Elmer).
# [4] = molecular target: T1, Interleukin-8 (IL8, CXCL8), C-terminal …; experiment: competition; competition TR-FRET; affinity within error of unpegylated parent; parent given as Aptamer 38 and as Aptamer 3; details: tags: C-terminal His (Sino Biological); stem-loop
# Protocol: as §1, with “To better understand the sequence requirements and to confirm the stem structures of members of the Aptamer 3 family as determined from sequence covariation analysis from both the primary and secondary (degenerate) selections, a series of variants which included mutations and deletions to the predicted stems were synthesized and screened (Table 24). Activity” for “Activity”
# [5] = molecular target: T1, Interleukin-8 (IL8, CXCL8), C-terminal …; experiment: inhibition; inhibition of IL8 binding to CXCR1 cells, 5 nM IL8, protein limited; neutrophil migration 3 nM (Table 35); details: tags: C-terminal His (Sino Biological); stem-loop
# Protocol: as §3
binder,measurement,setting,value
"CAAUGGGAAAUGUGAGAUGGGUUGCCG (ssRNA, 2'-F G, 2'-OMe A/C/U, 5' C6NH2, 3' idT) [Aptamer 214]",binding signal,[1],> 10 fold worse than Aptamer 8
"CGGUGGGAAAAGUGAGAUGGGUUGCCG (ssRNA, 2'-F G, 2'-OMe A/C/U, 5' C6NH2, 3' idT) [Aptamer 61]",binding result,[2],binds
"GGCGACGGUAGAUUAUGGGCAGUGUGACCGCGCC (ssRNA, 2'-F G; 2'-OMe A,C,U; 5' C6NH2; 3' idT) [Aptamer 147]",IC50,[3],3 nM
"GAUGACGGUAGAUUACGGGUAGAGUGACCGCAUC (ssRNA, 2'-F G; 2'-OMe A,C,U; 5' 40 kDa PEG via C6NH2; 3' idT) [Aptamer P01]",binding result,[4],binds
"UGAUGACGGUAGAUUACGGGUAGAGUGACCGCAUCU (ssRNA, 2'-F G; 2'-OMe A,C,U; 5' C6NH2; 3' idT) [Aptamer 3]",IC50,[5],3 nM
